Numbering of substitutions follows the chain as printed. Names and notes keep the numbering of the source.
B1: Bdigene 275: Acetyl-CoA acetyltransferase from Dyadobacter fermentans, Uniprot C6VTZ3, SEQ ID NO: 8 (protein)
chain: MNAYIVAGYRTAVGKAPRGGFRFTRPDDLGAAVIKHLLEKTPQLDPTRVDDVIVGNAVPEAEQGMQMGRYVALLSLPKNVSGITINRYCGSGVEAIAMASAKIHAGMAECIIAGGTESMSLVPTMGWKTALNYEIAHTNPDYYLSMGLTAEQVAQDFKISREAQDNFSFQSHQKALRAQKEGWFAEGIVPVTVKETYFDQASGKKKTKETVISQDEGPRADTTLEALNKLKPVFAAGGSVTAGNSSQTSDGAAFVLVMSERLVNELGLKPIARMMSYATAGVDPRVMGIGPVAAVPLALKQAGLQLKDIQQVELNEAFAAQSLAVIQELGIDPEIVNPNGGAIALGHALGSTGARLSVQLFNEMKRRDQKYGMVTACVGGGQGVAGIYERLN
modifications: Dyadobacter fermentans
B2: Bdigene 274: Acetate CoA-transferase YdiF from Megasphaera elsdenii DSM 20460, Uniprot G0VND6, SEQ ID NO: 7 (protein, listed as Megasphaera elsdenii)
chain: MRKVEIITAEQAAQLVKDNDTITSIGFVSSAHPEALTKALEKRFLDTNTPQNLTYIYAGSQGKRDGRAAEHLAHTGLLKRAIIGHWQTVPAIGKLAVENKIEAYNFSQGTLVHWFRALAGHKLGVFTDIGLETFLDPRQLGGKLNDVTKEDLVKLIEVDGHEQLFYPTFPVNVAFLRGTYADESGNITMDEEIGPFESTSVAQAVHNCGGKVVVQVKDVVAHGSLDPRMVKIPGIYVDYVVVAAPEDHQQTYDCEYDPSLSGEHRAPEGATDAALPMSAKKIIGRRGALELTENAVVNLGVGAPEYVASVAGEEGIADTITLTVEGGAIGGVPQGGARFGSSRNADAIIDHTYQFDFYDGGGLDIAYLGLAQCDGSGNINVSKFGTNVAGCGGFPNISQQTPNVYFCGTFTAGGLKIAVEDGKVKILQEGKAKKFIKAVDQITFNGSYAARNGKHVLYITERCVFELTKEGLKLIEVAPGIDIEKDILAHMDFKPIIDNPKLMDARLFQDGPMGLKK
B3: Bdigene 0343: E-cinnamoyl-CoA: R-phenyilactate CoA transferase from Clostridium sporogenes, Uniprot Q93AM1 (protein, UniProt Q93AM1 1-412, looked up)
Cinnamoyl-CoA:phenyllactate …: MENNTNMFSGVKVIELANFIAAPAAGRFFADGGAEVIKIESPAGDPLRYTAPSEGRPLSQEENTTYDLENANKKAIVLNLKSEKGKKILHEMLAEADILLTNWRTKALVKQGLDYETLKEKYPKLVFAQITGYGEKGPDKDLPGFDYTAFFARGGVSGTLYEKGTVPPNVVPGLGDHQAGMFLAAGMAGALYKAKTTGQGDKVTVSLMHSAMYGLGIMIQAAQYKDHGLVYPINRNETPNPFIVSYKSKDDYFVQVCMPPYDVFYDRFMTALGREDLVGDERYNKIENLKDGRAKEVYSIIEQQMVTKTKDEWDNIFRDADIPFAIAQTWEDLLEDEQAWANDYLYKMKYPTGNERALVRLPVFFKEAGLPEYNQSPQIAENTVEVLKEMGYTEQEIEELEKDKDIMVRKEK
B4: Bdigene 273: Acetate CoA-transferase YdiF from Firmicutes bacterium CAG, Uniprot R5ADR5, SEQ ID NO: 6 (protein)
chain: MARQVKVITAAEAAALIKNGDTVTTSGFVASAIPEALDRAVEERFLATGEPRDITYVYCGSQGNKDGRGAEHFAHEGLLKRYIAGHWATVPALQKMALENKMEAYNVSQGALCHLFRDIAAHRPGCFTKVGLGTFIDPRNGGGKVNDVTKEDIIELVNIKGQDYLFYPAFPINVALIRGTYADESGNISFEKEVSPLEGTSVCQAVKNSGGIVVVQVEKLVKAGTLDPRLVKVPGIYVDYVVVADPKDHQQTLDCDYDPALSGEMRNPDVAPEPLPLSAKKIIGRRGAVELEKDVAVNLGVGAPEYVASVANEEGIGDFMTLTVEGGAVGGVPAGGIRFGSAYNADALLDQGYQFDFYDGGGLDLCYLGLAECDPHGSINVSRFGPRIAGCGGFINITQCTPKVFFCGTFTAGGLKVKVEDGKVVIAQEGKNKKFVKSVEQVTFNGDIANKNGQHVMYITERCVFVLKEDGLHLTEIAPGIDLQTQILDQMEFEPIIDRNADGSITLMDAKLFADGLMGLKEMKEGK
B5: Bdigene 271: Acetate CoA-transferase YdiF from Salmonella enterica subsp. houtenaeserovar, Uniprot V1HBS2, SEQ ID NO: 9 (protein, listed as Salmonella enterica)
chain: MLSTKQFTAQQAVELIQDGDKVILGGFIGAVVPEAIEKAIEDKFLAEGHPCNLGLIFAAGQGDAKEKAINRLAHEGLVSSAIGGHWGLIPGLQRLASEGKITGYNLPQGVICHLLRDSAAGKAGTLTHVGLGTFVDPRIEGGKINAKTTEDIVTYININDVENLLYKKLDANIAILRGTTADTHGNITMEDECLILENLAAAQLVHNQGGKVIVQVKRIVPKGSLDPLQVKIPGIFVDALVVADGEAHMQTFAEAMNENYVGRGEKGIRERKIRPLDVKKVIARRAAMELKKNAIVNYGIGIPEIIAQVADEENVTQELIATVEPGAIGGSPAGGLSFGASAFPEAIITQDQMFDFYDGGGLDQAFLGLAETDAKGDLNVSKFGVKIAGCGGFINITQNAKHVFFCGSFTAGDSDIIVEEGKLIIRRDGQIKKFIKHVQQITFSSDTARKNHKPVLYITERAVFRLAAETIELIEIAPGIDLQHDILDKMEFRPTISPALKEMDKRIFSEALMSLSLK
B6: S60A: YdiF (SEQ ID NO: 1) mutant, alanine for serine at position 60, N-terminal His-tag (protein, listed as Clostridium propionicum)
chain: MRKVPIITADEAAKLIKDGDTVTTSGFVGNAIPEALDRAVEKRFLETGEPKNITYVYCGAQGNRDGRGAEHFAHEGLLKRYIAGHWATVPALGKMAMENKMEAYNVSQGALCHLFRDIASHKPGVFTKVGIGTFIDPRNGGGKVNDITKEDIVELVEIKGQEYLFYPAFPIHVALIRGTYADESGNITFEKEVAPLEGTSVCQAVKNSGGIVVVQVERVVKAGTLDPRHVKVPGIYVDYVVVADPEDHQQSLDCEYDPALSGEHRRPEVVGEPLPLSAKKVIGRRGAIELEKDVAVNLGVGAPEYVASVADEEGIVDFMTLTAESGAIGGVPAGGVRFGASYNADALIDQGYQFDYYDGGGLDLCYLGLAECDEKGNINVSRFGPRIAGCGGFINITQNTPKVFFCGTFTAGGLKVKIEDGKVIIVQEGKQKKFLKAVEQITFNGDVALANKQQVTYITERCVFLLKEDGLHLSEIAPGIDLQTQILDVMDFAPIIDRDANGQIKLMDAALFAEGLMGLKEMKS
modifications: N-terminal His-tag
B7: C112A: YdiF (SEQ ID NO: 1) mutant, alanine for cysteine at position 112, N-terminal His-tag (protein, listed as Clostridium propionicum)
chain: B6 chain with A60S, C112A
modifications: N-terminal His-tag
B8: C390A: YdiF (SEQ ID NO: 1) mutant, alanine for cysteine at position 390, N-terminal His-tag (protein, listed as Clostridium propionicum)
chain: B6 chain with A60S, C390A
modifications: N-terminal His-tag
B9: E324L: YdiF mutant, leucine for the glutamate in position 324, SEQ ID NO: 4 (protein)
chain: MGHHHHHHSSGLVPRGSMRKVPIITADEAAKLIKDGDTVTTSGFVGNAIPEALDRAVEKRFLETGEPKNITYVYCGSQGNRDGRGAEHFAHEGLLKRYIAGHWATVPALGKMAMENKMEAYNVSQGALCHLFRDIASHKPGVFTKVGIGTFIDPRNGGGKVNDITKEDIVELVEIKGQEYLFYPAFPIHVALIRGTYADESGNITFEKEVAPLEGTSVCQAVKNSGGIVVVQVERVVKAGTLDPRHVKVPGIYVDYVVVADPEDHQQSLDCEYDPALSGEHRRPEVVGEPLPLSAKKVIGRRGAIELEKDVAVNLGVGAPEYVASVADEEGIVDFMTLTALSGAIGGVPAGGVRFGASYNADALIDQGYQFDYYDGGGLDLCYLGLAECDEKGNINVSRFGPRIAGCGGFINITQNTPKVFFCGTFTAGGLKVKIEDGKVIIVQEGKQKKFLKAVEQITFNGDVALANKQQVTYITERCVFLLKEDGLHLSEIAPGIDLQTQILDVMDFAPIIDRDANGQIKLMDAALFAEGLMGLKEMKS

experiment: Solubility of the expressed protein (Table 3); settings: protein expressed in E. coli
Procedure: From a fresh LB plate containing the desired clone transformant, one colony (or small scratch) was picked to inoculate 25 mL of LB supplemented with the relevant antibiotic and the pre-culture was incubated overnight at 37° C., 230 rpm. The following morning, the TB auto-induced medium (Merck/Code product: 71491-5) was prepared by mixing 60 g TB/L supplemented with 10 mL Glycerol/L of TB and microwaved during 3+2 minutes at full power. The TB was cooled down before use and splitting it in sterile flasks. Then, the pre-culture incubated overnight in LB was centrifuged and the supernatant discarded. The obtained pellet was resuspended with 5 mL of freshly prepared TB medium and used to inoculate 500 mL of TB dispensed in sterile flasks and supplemented with the appropriate antibiotic. The inoculated medium was incubated at 28° C. for at least 20 h, 230 rpm.
The culture was centrifuged at least at 3000 g/20 min/4° C. and the pellet used immediately or stored at −80′C.
The pellets (fresh or thawed) were resuspended in 10 to 20 mL of Buffer A (50 mM Hepes+150 mM NaCl+40 mM Imidazole+5% Glycerol−pH 7.5). The resuspended cells were then sonicated in ice for, 5 min at 37% Amplitude with 5″ ON and 15″ OFF sonication pulse. The sonicated cells were centrifuged for at least 20 min at 15500 g and 4° C. The supernatant containing the soluble fraction of proteins was recovered, filtered using 0.45 or 0.2 um filters, and used for His-trap protein purification.

Q: With B1 as the molecule, how does the Solubility read?
A: ✓

Q: Which Solubility does the source give for B2 here?
A: ✓

Q: Which Solubility does the source give for B3 here?
A: ✓

Q: With B4 as the molecule, how does the Solubility read?
A: ✓

experiment: Screen for dual transferase/ketothiolase activity with acetyl-CoA and sodium acrylate, LC-MS detection; format: biochemical; settings: 3-oxopent-4-enoyl-CoA via thiolase activity
Procedure: (§1) Acetyl-CoA was used at a final concentration of 1.5 mM and 30 mM of the substrate being studied (e.g. carboxylic acid salts, such as sodium acrylate) or 1.5 mM of propionyl-CoA in 50 mM Hepes buffer (pH 7.5). The reaction was started by addition of 0.5 mg/mL of YdiF pure protein or mutants to a final volume of 250 μL and incubated for 1 to 10 hours at 30° C.
Two controls were made from similar mixture except that the enzymes were inactivated by heating-up at 95° C. for 20 min or they were replaced by Buffer C.
(§2) All samples were prepared in triplicate and spun down at 15000 g for 20 min at 4° C. Detection of the thiol product (e.g. acryloyl-CoA) synthesized from CoA-transferase activity and the keto-thiol product (e.g. 3-oxopent-4-enoyl-CoA) due to putative thiolase activity of YdiF (or homologues) was carried out by Liquid Chromatography coupled to a qTof-Mass spectrometry (in positive mode), using a C18 column (Zorbax Eclipse C18, 2.1×50 mm, 1.8μ, Agilent, code product: 959757-902) and a gradient of 10 mM ammonium acetate and acetonitrile as mobile phase.
YdiF from Clostridium propionicum belongs to the enzymatic class EC2.8.3.8. Other members of this enzyme class with similar structural features to YdiF, as well as proteins with a CoA-transferase activity from close-by enzymatic classes, were screened for dual transferase/ketothiolase activity as described in Example 2. Acetyl-CoA and sodium acrylate were provided as substrates. LC-MS was used to detect the thiol-product (propenoyl-CoA) synthesized via the transferase activity and the ketothiol-product (3-oxopent-4-enoyl-CoA) synthesized via the thiolase activity, as described in Example 2.

Q: With B5 as the molecule, how does the ketothiol-product read?
A: ✓

Q: For B2, which ketothiol-product is on record?
A: ✓

Q: With B4 as the molecule, how does the ketothiol-product read?
A: ✓

same assay, conditions: propenoyl-CoA via transferase activity

Q: Which thiol-product does the source give for B5 here?
A: ✓

Q: For B2, which thiol-product is on record?
A: ✓

Q: For B4, which thiol-product is on record?
A: ✓

experiment: Activity of YdiF mutant enzymes (evaluation of potential active sites); format: biochemical; settings: studied as in Example 2
Procedure: YdiF mutants were prepared using the relevant primers to introduce the mutated bases via the Quick change lightning kit (Agilent, code product: 210518-5), and cloned into E. coli. In addition, all the proteins used in this experiment have the following extra amino acids added in the N-terminal extremity of the original protein sequence (SEQ ID NO:1): […]. Those additional amino acids correspond to: two amino acids (M and G), a 6×His-tag followed by a 3 amino acids linker (SSG), and a specific proteolytic cleavage site (thrombin site, underlined) (SEQ ID NO: 22). All the sequences were confirmed by DNA sequencing.
as §1, §2
Mutations were introduced as described in Example 1 at the following positions previously found to be potentially involved in the active site of other β-ketothiolases: C258A, S60A, C112A, S38A, C390A. Activity of the mutant enzymes was studied as described in Example 2.
Mutations were introduced as described in Example 1 to replace the glutamate in position 324 of YdiF (see Selmer et al., 2002) with glycine (mutant E324G) or leucine (E324L). Activity of the mutant enzymes was studied as described in Example 2.

Q: Which thiolase activity does the source give for B6 here?
A: None of the mutations abolished

Q: And the transferase activity?
A: None of the mutations abolished

Q: For B7, which thiolase activity is on record?
A: None of the mutations abolished

Q: What about the transferase activity of the same molecule?
A: None of the mutations abolished

Q: Which thiolase activity does the source give for B8 here?
A: None of the mutations abolished

Q: What about the transferase activity of the same molecule?
A: None of the mutations abolished

Q: For B9, which transferase activity is on record?
A: only partially abolished
